Reference: the supplement of paper PMC9732359
± gives the uncertainty stated by the source.

Assay: protein stability index of a GFP-peptide fusion (yeast GPS) (PSI 1-4); higher = more stable; sorted into four equal gates, so the index is relative within each strain
How it was run: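 Plasmids in a pooled yeast library fused tiled 17-residue yeast protein peptides downstream of GFP and also expressed Cherry. Mid-log cultures grown without leucine were sorted into four equal gates by GFP/Cherry fluorescence ratio. Each gate's plasmids were PCR-amplified and Illumina-sequenced, and reads were matched to strains by barcodes. The protein stability index is derived by multiplying each gate's read frequency by its gate number and summing the results.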

## FYAAVQKNYADPEKDSI [SIN4]
doa10∆
  protein stability index: 2.11 ± 0.083
pdr5∆
  protein stability index: 2.58 ± 0.074
san1∆
  protein stability index: 2.01 ± 0.093
ubr1∆
  protein stability index: 1.59 ± 0.046

## GAEVLIKGSKLSLGEAF [COR1]
san1∆
  protein stability index: 2.32 ± 0.15
ubr1∆
  protein stability index: 2.37 ± 0.1

## GAHKFLDTYLPEDLNSL [SIR2]
doa10∆
  protein stability index: 1.85 ± 0.071
pdr5∆
  protein stability index: 1.88 ± 0.076
san1∆
  protein stability index: 1.56 ± 0.13
ubr1∆
  protein stability index: 1.81 ± 0.064

## GAINVANCQRQLTEFWT [NNF1]
doa10∆
  protein stability index: 3.2 ± 0.16
pdr5∆
  protein stability index: 2.76 ± 0.13
san1∆
  protein stability index: 2.71 ± 0.21

## GALEEITKDHKVLARQQ [FAS2]
doa10∆
  protein stability index: 2.31 ± 0.25
san1∆
  protein stability index: 3.01 ± 0.12
ubr1∆
  protein stability index: 2.73 ± 0.17

## GALIHKAGLMTGGISGD [SMC1]
doa10∆
  protein stability index: 2.63 ± 0.16
pdr5∆
  protein stability index: 2.73 ± 0.11
san1∆
  protein stability index: 2.72 ± 0.06
ubr1∆
  protein stability index: 2.75 ± 0.087

## GARFDDGAGGDNEVQRT [RPT1]
doa10∆
  protein stability index: 3.58 ± 0.2
pdr5∆
  protein stability index: 3.4 ± 0.26
san1∆
  protein stability index: 3.47 ± 0.24
ubr1∆
  protein stability index: 3.52 ± 0.083

## GARPGRVARRNAARKAE [RPS9A]
doa10∆
  protein stability index: 3.3 ± 0.13
pdr5∆
  protein stability index: 3.45 ± 0.17
ubr1∆
  protein stability index: 3 ± 0.098

## GATYRGKLVESEDSMNV [SMD3]
doa10∆
  protein stability index: 3.17 ± 0.084
pdr5∆
  protein stability index: 2.73 ± 0.053
san1∆
  protein stability index: 3.01 ± 0.06
ubr1∆
  protein stability index: 3.33 ± 0.055

## GCLHKGKLISNLSSTPM [YML031W/NDC1]
pdr5∆
  protein stability index: 1.81 ± 0.16
ubr1∆
  protein stability index: 2.05 ± 0.19

## GCNNLIKNISNRVGLTL [ARP9]
doa10∆
  protein stability index: 3.28 ± 0.098
pdr5∆
  protein stability index: 2.63 ± 0.066
san1∆
  protein stability index: 3.33 ± 0.069
ubr1∆
  protein stability index: 3.14 ± 0.057

## GCVSYSPAALKQLASLK [YMR153W/NUP53]
doa10∆
  protein stability index: 1.7 ± 0.066
pdr5∆
  protein stability index: 2.22 ± 0.07
san1∆
  protein stability index: 2.08 ± 0.12
ubr1∆
  protein stability index: 2.62 ± 0.078

## GDIVRMLETAGFSMNNP [SMC3]
doa10∆
  protein stability index: 3.08 ± 0.095
pdr5∆
  protein stability index: 3.26 ± 0.1
san1∆
  protein stability index: 3.04 ± 0.089
ubr1∆
  protein stability index: 3.16 ± 0.054

## GDLKLQVLLDEEYKQLV [RPO21]
doa10∆
  protein stability index: 2.48 ± 0.12
pdr5∆
  protein stability index: 2.94 ± 0.082
san1∆
  protein stability index: 2.73 ± 0.11
ubr1∆
  protein stability index: 3.2 ± 0.062

## GDLVYARVCTAEKELEA [RRP40]
doa10∆
  protein stability index: 1.3 ± 0.09
pdr5∆
  protein stability index: 1.51 ± 0.19
san1∆
  protein stability index: 1.46 ± 0.19
ubr1∆
  protein stability index: 1.2 ± 0.23

## GEGSTVNASVDVDQHGN [SWI3]
pdr5∆
  protein stability index: 3.47 ± 0.17
san1∆
  protein stability index: 2.87 ± 0.29
ubr1∆
  protein stability index: 3.35 ± 0.19

## GEHEKSNILLNSLTKYP [MED1]
doa10∆
  protein stability index: 1.45 ± 0.08
pdr5∆
  protein stability index: 1.92 ± 0.076
san1∆
  protein stability index: 1.14 ± 0.25
ubr1∆
  protein stability index: 1.69 ± 0.068

## GEIDFIKNIGKSLKNNF [YML103C/NUP188]
doa10∆
  protein stability index: 2.59 ± 0.21
pdr5∆
  protein stability index: 2.57 ± 0.18
san1∆
  protein stability index: 2.17 ± 0.15

## GEIVSINQINEAHPTKV [RPL20A]
doa10∆
  protein stability index: 3.17 ± 0.25
pdr5∆
  protein stability index: 2.98 ± 0.17
san1∆
  protein stability index: 3.06 ± 0.06
ubr1∆
  protein stability index: 2.77 ± 0.092

## GELDVLQIESVTKETVH [PRP8]
doa10∆
  protein stability index: 2.54 ± 0.054
pdr5∆
  protein stability index: 2.73 ± 0.066
san1∆
  protein stability index: 2.55 ± 0.07
ubr1∆
  protein stability index: 2.76 ± 0.064

## GELLHHPIMETIVNDSN [RPN9]
doa10∆
  protein stability index: 2.6 ± 0.053
pdr5∆
  protein stability index: 2.77 ± 0.054
san1∆
  protein stability index: 2.2 ± 0.08
ubr1∆
  protein stability index: 2.97 ± 0.078

## GESTVESEKLVTPEDVM [RPC82]
doa10∆
  protein stability index: 3.15 ± 0.09
pdr5∆
  protein stability index: 3.25 ± 0.12
san1∆
  protein stability index: 3.15 ± 0.11

## GETIKSNAVTQTNIWEE [SEM1]
doa10∆
  protein stability index: 3.37 ± 0.087
pdr5∆
  protein stability index: 3.54 ± 0.16
san1∆
  protein stability index: 2.97 ± 0.17
ubr1∆
  protein stability index: 3.43 ± 0.14

## GFQDRSLPHFPKNSKTP [RPO31]
doa10∆
  protein stability index: 2.7 ± 0.14
pdr5∆
  protein stability index: 1.96 ± 0.1
san1∆
  protein stability index: 1.56 ± 0.11

## GFSFGSQLGGNKTVNEA [YJL041W/NSP1]
doa10∆
  protein stability index: 3.18 ± 0.072
pdr5∆
  protein stability index: 3.23 ± 0.074
san1∆
  protein stability index: 3.32 ± 0.048
ubr1∆
  protein stability index: 3.22 ± 0.048

## GFVRNSFFSGLSPPEFL [RPO31]
doa10∆
  protein stability index: 2.99 ± 0.077
pdr5∆
  protein stability index: 2.95 ± 0.079
san1∆
  protein stability index: 3.11 ± 0.08
ubr1∆
  protein stability index: 3.13 ± 0.052
